Measurements as given in the supplement of paper PMC12764529.
± gives the half width of the 95% confidence interval.

What was measured:
[1] = folding stability dG unfold from chymotrypsin proteolysis; higher = more stable
Outline: (§1)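 Digests were run with trypsin and chymotrypsin at 11 concentrations in threefold dilutions, plus a no-protease condition, on designed mini-proteins in a PA-tagged cDNA display construct. The mini-proteins were under 80 residues, had no cysteine, and were kept only when AlphaFold2 dimer inter-PAE was above 15. After sequencing, Bayesian fitting of the counts gave K50, from which unfolding free energy was derived against a sequence-predicted unfolded-state K50 and a shared folded-state K50, per protease or combined.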

[2] = folding stability dG unfold (combined trypsin and chymotrypsin); higher = more stable
Outline: as §1

[3] = folding stability dG unfold from trypsin proteolysis; higher = more stable
Outline: as §1

Sequence: SAGGSAGGSAILVPSPETAKKIMDELRKKTGAKVKMKPIGTGADGKEYYRIEVVPPDKPLDSAGGSAGGSAG [r3_59_TrMRF]
- folding stability dG unfold [1]: -0.118 ± 0.14 kcal/mol
- folding stability dG unfold [2]: 0.0705 ± 0.14 kcal/mol
- folding stability dG unfold [3]: 0.029 ± 0.084 kcal/mol

Sequence: SAGGSAGGSAIMINIDLEYDPGDGTIELEYKISFMDPGGKPMGMITIRLEIRIPPPEPDPDDKSAGGSAGGS [r12_254_TrROS]
- folding stability dG unfold [1]: 3.64 ± 0.39 kcal/mol
- folding stability dG unfold [2]: 3.37 ± 0.46 kcal/mol
- folding stability dG unfold [3]: 3.08 ± 0.31 kcal/mol

Sequence: SAGGSAGGSAIVILLPWGFLIEIKNIRMEMKRDPGNGEPKMDMHIPIEIIPIPPPGDPAFQESAGGSAGGSA [r18_6_TrROS]
- folding stability dG unfold [1]: 3.17 ± 0.039 kcal/mol
- folding stability dG unfold [2]: 2.79 ± 0.14 kcal/mol
- folding stability dG unfold [3]: 2.12 ± 0.054 kcal/mol

Sequence: SAGGSAGGSAKAKIKKVEVEKEGDKLRVTAEIELEDGYVLKVSFEFKDDEIKMEIEIVPLKDSAGGSAGGSA [r18_79_TrROS_Hall]
- folding stability dG unfold [1]: 3.38 ± 0.29 kcal/mol
- folding stability dG unfold [2]: 3.22 ± 0.48 kcal/mol
- folding stability dG unfold [3]: 3.02 ± 0.32 kcal/mol

Sequence: SAGGSAGGSAKAKVIKTEEFELPNGVRIRIEYIEVDGKLIEKVEIEIKAESEEQKKALEKASAGGSAGGSAG [r3_158_TrROS_Hall]
- folding stability dG unfold [1]: 1.82 ± 0.15 kcal/mol
- folding stability dG unfold [2]: 1.71 ± 0.17 kcal/mol
- folding stability dG unfold [3]: 1.29 ± 0.052 kcal/mol

Sequence: SAGGSAGGSAKIRLIFKTEEEARKAIEALLPEGAKAKIKVEKRKDGKKYVVVEIEFKEEEESAGGSAGGSAG [r3_87_TrROS_Hall]
- folding stability dG unfold [1]: 3.79 ± 0.23 kcal/mol
- folding stability dG unfold [2]: 3.57 ± 0.21 kcal/mol
- folding stability dG unfold [3]: 3.58 ± 0.24 kcal/mol

Sequence: SAGGSAGGSAKIWIILKDADEARDRIEELFGPGVRIEPVNIQRWDGKVYVMIEIEIPPNMTSAGGSAGGSAG [r3_87_TrROS]
- folding stability dG unfold [1]: 2.4 ± 0.051 kcal/mol
- folding stability dG unfold [2]: 2.28 ± 0.054 kcal/mol
- folding stability dG unfold [3]: 2.1 ± 0.055 kcal/mol

Sequence: SAGGSAGGSAKKKILVKKPDGRLLLIEIDKDKPNTVRIYDIDTGKKIELSVEDLKKLKIKKSAGGSAGGSAG [r3_451_TrROS_Hall]
- folding stability dG unfold [1]: 2.35 ± 0.052 kcal/mol
- folding stability dG unfold [2]: 2.08 ± 0.052 kcal/mol
- folding stability dG unfold [3]: 1.57 ± 0.034 kcal/mol

Sequence: SAGGSAGGSAKKPVTGTIILKYPGTPEDALAKAKEIAKELESRGYSVSAEFLPNGYIKITLPSAGGSAGGSA [r18_262_TrMRF]
- folding stability dG unfold [1]: 1.78 ± 0.051 kcal/mol
- folding stability dG unfold [2]: 1.73 ± 0.098 kcal/mol
- folding stability dG unfold [3]: 1.48 ± 0.049 kcal/mol

Sequence: SAGGSAGGSAKKTLYKVKITKKNKNGEKIEIVVPKSEDEIKEEAKKKFGIDKIEIEPVELKSAGGSAGGSAG [r3_220_TrROS_Hall]
- folding stability dG unfold [1]: 0.466 ± 0.19 kcal/mol
- folding stability dG unfold [2]: 0.182 ± 0.17 kcal/mol
- folding stability dG unfold [3]: -0.305 ± 0.16 kcal/mol

Sequence: SAGGSAGGSAKKVIKAKILEVKVLPDGTGLVKLEGEDGLEVVIPLSILENISPDAIVTIEASAGGSAGGSAG [r3_315_TrMRF]
- folding stability dG unfold [1]: 1.79 ± 0.039 kcal/mol
- folding stability dG unfold [2]: 1.45 ± 0.066 kcal/mol
- folding stability dG unfold [3]: 0.916 ± 0.055 kcal/mol

Sequence: SAGGSAGGSAKKVKIEEKDGELTITVEPGEKVLIVYPDGTVEEVEVKEGDTITLPPGAKVLPSAGGSAGGSA [r18_452_TrROS_Hall]
- folding stability dG unfold [1]: 1.63 ± 0.12 kcal/mol
- folding stability dG unfold [2]: 1.33 ± 0.24 kcal/mol
- folding stability dG unfold [3]: 0.513 ± 0.11 kcal/mol

Sequence: SAGGSAGGSAKLEYDDDYVEIEFKVPDGPIMIYIPDWGWMIWIWPGKEVTIRFPIPKPPDNSAGGSAGGSAG [r3_185_TrROS]
- folding stability dG unfold [1]: 4.03 ± 0.24 kcal/mol
- folding stability dG unfold [2]: 3.43 ± 0.22 kcal/mol
- folding stability dG unfold [3]: 2.41 ± 0.089 kcal/mol

Sequence: SAGGSAGGSAKLVKITFSNGEELVLPADKFSIEAIKSLPVPAKVEVFDVPKSDTNLEDLLKSAGGSAGGSAG [r3_69_TrMRF]
- folding stability dG unfold [1]: 2.03 ± 0.022 kcal/mol
- folding stability dG unfold [2]: 1.66 ± 0.044 kcal/mol
- folding stability dG unfold [3]: 0.72 ± 0.043 kcal/mol

Sequence: SAGGSAGGSAKMEIVLEVDTPEEAKEAAKKLAEELKKKGYKVKVEVKKLKNGKYYVKITVDSAGGSAGGSAG [r3_211_TrROS_Hall]
- folding stability dG unfold [1]: 4.84 ± 0.26 kcal/mol
- folding stability dG unfold [2]: 4.66 ± 0.33 kcal/mol
- folding stability dG unfold [3]: 3.33 ± 0.23 kcal/mol

Sequence: SAGGSAGGSAKPKVKIEVEERRVLTLDPETGELKEERVLVVRIEVEPGMSEEEAKKLLEELASAGGSAGGSA [r18_438_TrROS_Hall]
- folding stability dG unfold [1]: 2.66 ± 0.12 kcal/mol
- folding stability dG unfold [2]: 2.27 ± 0.16 kcal/mol
- folding stability dG unfold [3]: 1.7 ± 0.079 kcal/mol

Sequence: SAGGSAGGSAKPLTVEEIIKKLNLPPNVEIVDVKVDYGKTENKPIIVLVLKTKDKPYLPVFASAGGSAGGSA [r18_354_TrMRF]
- folding stability dG unfold [1]: 1.91 ± 0.065 kcal/mol
- folding stability dG unfold [2]: 1.61 ± 0.17 kcal/mol
- folding stability dG unfold [3]: 1.25 ± 0.097 kcal/mol

Sequence: SAGGSAGGSAKPNWVIIEMTIQIPEGDPEEIKEIMEPFGWEITGVDNNYIKVSILMPPGAKISAGGSAGGSA [r18_168_TrROS]
- folding stability dG unfold [1]: 1.14 ± 0.043 kcal/mol
- folding stability dG unfold [2]: 1.26 ± 0.25 kcal/mol
- folding stability dG unfold [3]: 1.26 ± 0.14 kcal/mol

Sequence: SAGGSAGGSAKPQKVELELFPNGELIIRLPETGARIRLKVEVFKDASGNPFFKLEIVDIDPSAGGSAGGSAG [r3_76_TrMRF]
- folding stability dG unfold [1]: 2.66 ± 0.058 kcal/mol
- folding stability dG unfold [2]: 2.6 ± 0.16 kcal/mol
- folding stability dG unfold [3]: 2.48 ± 0.14 kcal/mol

Sequence: SAGGSAGGSAKPVLEVEITVEVNGKLYKVRARVELEETPDGLVLKVEVELENGEKFEFTLKLSAGGSAGGSA [r18_54_TrROS_Hall]
- folding stability dG unfold [1]: 5.13 ± 0.21 kcal/mol
- folding stability dG unfold [2]: 5.11 ± 0.28 kcal/mol
- folding stability dG unfold [3]: 4.42 ± 0.26 kcal/mol

Sequence: SAGGSAGGSAKPVYKIRIVVKKDGKEFVKEIEVPEDEEEAEALAKELAKKPEVEKVEVEKVSAGGSAGGSAG [r3_310_TrROS_Hall]
- folding stability dG unfold [1]: 1.84 ± 0.058 kcal/mol
- folding stability dG unfold [2]: 1.62 ± 0.18 kcal/mol
- folding stability dG unfold [3]: 0.739 ± 0.075 kcal/mol
